The data set has as its system microtubules.

On to HsKip3d M1-S357 protein, for which the “Km for microtubule stimulation (coupled PK/LDH microtubule-stimulated ATPase assay, Michaelis-Menten fit)” value was “a Km for microtubule stimulation of 0.2 µM”.
